# Reference: patent publication US20190233808
# Substitutions are numbered along the chain they refer to. Names may count otherwise.
# T1: synthetic MMP1 substrate MCA-Lys-Pro-Leu-Gly-Leu-DPA-Ala-Arg-NH2 (R&D Systems, Cat# ES010)
# T1 chain: KPLGLXAR
# B1: trypsin-activated MMP1 (43 kD active human matrix metalloproteinase-1) (protein)
# chain: VLTEGNPRWEQTHLTYRIENYTPDLPRADVDHAIEKAFQLWSNVTPLTFTKVSEGQADIMISFVRGDHRDNSPFDGPGGNLAHAFQPGPGIGGDAHFDEDERWTNNFREYNLHRVAAHELGHSLGLSHSTDIGALMYPSYTFSGDVQLAQDDIDGIQAIYGRSQNPVQPIGPQTPKACDSKLTFDAITTIRGEVMFFKDRFYMRTNPFYPEVELNFISVFWPQLPNGLEAAYEFADRDEVRFFKGNKYWAVQGQNVLHGYPKDIYSSFGFPRTVKHIDAALSEENTGKTYFFVANKYWRYDEYKRSMDPGYPKMIAHDFPGIGHKVDAVFMKDGFFYFFHGTRQYKFDPKTKRILTLQKANSWFNCRKN
# B2: catalytically inactive mutant MMP1 (E219Q) (protein)
# chain: B1 chain with E119Q
# Columns and labels:
# [1] = molecular target: T1, synthetic MMP1 substrate …
# [2] = molecular target: FITC-labeled bovine type-1 collagen (Chondrex, Cat# 4001), P02453
# Sequence of FITC-labeled bovine type-1 collagen (Chondrex, Cat# 4001), P02453 (P02453 162-1217, chain 1 of 2): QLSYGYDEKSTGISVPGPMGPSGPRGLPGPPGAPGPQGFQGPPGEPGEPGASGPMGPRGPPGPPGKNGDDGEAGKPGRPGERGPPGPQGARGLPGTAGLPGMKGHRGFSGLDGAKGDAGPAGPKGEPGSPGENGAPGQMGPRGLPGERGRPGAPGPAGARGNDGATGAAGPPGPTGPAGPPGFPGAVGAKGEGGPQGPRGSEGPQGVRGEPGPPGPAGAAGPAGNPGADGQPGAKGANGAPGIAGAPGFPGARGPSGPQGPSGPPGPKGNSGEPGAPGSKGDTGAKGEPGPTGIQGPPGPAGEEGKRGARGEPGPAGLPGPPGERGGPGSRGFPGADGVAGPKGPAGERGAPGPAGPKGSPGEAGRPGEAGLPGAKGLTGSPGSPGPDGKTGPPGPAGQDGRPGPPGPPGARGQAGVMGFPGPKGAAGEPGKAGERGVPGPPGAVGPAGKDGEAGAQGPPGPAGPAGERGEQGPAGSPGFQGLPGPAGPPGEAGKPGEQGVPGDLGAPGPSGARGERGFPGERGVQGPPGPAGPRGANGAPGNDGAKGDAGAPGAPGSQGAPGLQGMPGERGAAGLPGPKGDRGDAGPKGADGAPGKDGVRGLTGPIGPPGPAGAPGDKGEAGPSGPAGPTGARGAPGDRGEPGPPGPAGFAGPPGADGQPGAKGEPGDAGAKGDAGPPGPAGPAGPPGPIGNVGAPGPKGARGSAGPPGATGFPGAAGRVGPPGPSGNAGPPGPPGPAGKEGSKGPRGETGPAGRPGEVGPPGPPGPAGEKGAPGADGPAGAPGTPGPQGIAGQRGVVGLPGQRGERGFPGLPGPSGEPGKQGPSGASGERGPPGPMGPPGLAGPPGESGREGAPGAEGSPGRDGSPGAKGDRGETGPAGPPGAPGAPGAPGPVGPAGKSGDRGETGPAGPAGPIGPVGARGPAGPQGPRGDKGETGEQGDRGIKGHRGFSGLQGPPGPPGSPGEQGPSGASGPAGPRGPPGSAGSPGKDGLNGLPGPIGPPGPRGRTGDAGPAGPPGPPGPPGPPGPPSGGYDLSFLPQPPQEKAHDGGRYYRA
# Sequence of FITC-labeled bovine type-1 collagen (Chondrex, Cat# 4001), P02453 (P02453 other isoform, or with tags, fused parts or gaps, chain 2 of 2): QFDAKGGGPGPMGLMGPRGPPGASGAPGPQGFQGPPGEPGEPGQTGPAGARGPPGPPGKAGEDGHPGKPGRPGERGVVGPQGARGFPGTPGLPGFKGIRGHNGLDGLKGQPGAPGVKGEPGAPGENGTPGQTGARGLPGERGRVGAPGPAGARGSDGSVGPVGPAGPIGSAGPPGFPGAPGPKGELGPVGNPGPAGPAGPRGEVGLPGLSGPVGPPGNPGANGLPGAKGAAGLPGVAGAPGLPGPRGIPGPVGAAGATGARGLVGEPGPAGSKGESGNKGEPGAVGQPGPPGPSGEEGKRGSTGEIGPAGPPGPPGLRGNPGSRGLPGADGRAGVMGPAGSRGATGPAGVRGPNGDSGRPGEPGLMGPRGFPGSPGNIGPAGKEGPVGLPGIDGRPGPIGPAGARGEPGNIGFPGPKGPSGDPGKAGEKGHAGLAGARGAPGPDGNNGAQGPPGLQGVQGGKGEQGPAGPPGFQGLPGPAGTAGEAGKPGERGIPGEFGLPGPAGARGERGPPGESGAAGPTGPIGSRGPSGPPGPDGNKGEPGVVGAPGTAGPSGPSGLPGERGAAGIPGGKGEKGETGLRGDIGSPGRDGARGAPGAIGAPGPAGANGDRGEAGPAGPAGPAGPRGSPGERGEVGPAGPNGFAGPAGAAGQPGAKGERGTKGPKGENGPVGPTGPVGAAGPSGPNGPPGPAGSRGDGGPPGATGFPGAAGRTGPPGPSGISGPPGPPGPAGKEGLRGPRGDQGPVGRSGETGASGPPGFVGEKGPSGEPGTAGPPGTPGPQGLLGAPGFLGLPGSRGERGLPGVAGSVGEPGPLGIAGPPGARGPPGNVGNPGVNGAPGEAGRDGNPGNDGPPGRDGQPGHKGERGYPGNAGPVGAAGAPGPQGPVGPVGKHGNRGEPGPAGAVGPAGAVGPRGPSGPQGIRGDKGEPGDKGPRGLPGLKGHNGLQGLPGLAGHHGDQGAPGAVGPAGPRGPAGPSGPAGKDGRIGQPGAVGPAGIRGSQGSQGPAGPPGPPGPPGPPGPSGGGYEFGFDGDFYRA
protein,measurement,setting,value
B1,reaction rate k (RFU of degraded substrate by 0.05 µg MMP1),[1],k=0.26±0.02 RFU/min
same,specific activity (RFU),[1],k/0.05=5.2 RFU/min/µg
same,"specific activity (fluorogenic peptide substrate, 37° C.)",[1],~999 pmol/min/µg
same,collagen cleavage on SDS PAGE,[2],active MMP1 cleaves type-1 collagen into ¾ and ¼ fragments
same,kcat (weight-based collagen degradation assay),[2],~19 monomers per MMP1 per hour
same,kcat/MMP1/hr using 1 mg/ml concentration (+MMP1 for 1 hr),[2],0.5 /MMP1/hr
same,kcat/MMP1/hr using 1 mg/ml concentration (+MMP1 for 2 hr),[2],0.21 /MMP1/hr
same,kcat/MMP1/hr using 1 mg/ml concentration (+MMP1 for 3 hr),[2],0.19 /MMP1/hr
same,kcat/MMP1/hr using 1 mg/ml concentration (+MMP1 for 4 hr),[2],0.15 /MMP1/hr
same,kcat/MMP1/hr using 1 mg/ml concentration (+MMP1 for 5 hr),[2],0.14 /MMP1/hr
same,kcat/MMP1/hr using 1 mg/ml concentration (+MMP1 for 6 hr),[2],0.11 /MMP1/hr
same,kcat/MMP1/hr using 1 mg/ml concentration (+MMP1 for 7 hr),[2],0.1 /MMP1/hr
same,kcat/MMP1/hr using 1 mg/ml concentration (+MMP1 for 8 hr),[2],0.1 /MMP1/hr
same,kcat/MMP1/hr using 1 mg/ml concentration (+MMP1 for 9 hr),[2],0.09 /MMP1/hr
same,kcat/MMP1/hr using 1 mg/ml concentration (+MMP1 for 10 hr),[2],0.09 /MMP1/hr
same,kcat/MMP1/hr using 114.2 mg/ml concentration (+MMP1 for 1 hr),[2],58 /MMP1/hr
same,kcat/MMP1/hr using 114.2 mg/ml concentration (+MMP1 for 2 hr),[2],24 /MMP1/hr
same,kcat/MMP1/hr using 114.2 mg/ml concentration (+MMP1 for 3 hr),[2],22 /MMP1/hr
same,kcat/MMP1/hr using 114.2 mg/ml concentration (+MMP1 for 4 hr),[2],17 /MMP1/hr
same,kcat/MMP1/hr using 114.2 mg/ml concentration (+MMP1 for 5 hr),[2],16 /MMP1/hr
same,kcat/MMP1/hr using 114.2 mg/ml concentration (+MMP1 for 6 hr),[2],13 /MMP1/hr
same,kcat/MMP1/hr using 114.2 mg/ml concentration (+MMP1 for 7 hr),[2],11 /MMP1/hr
same,kcat/MMP1/hr using 114.2 mg/ml concentration (+MMP1 for 8 hr),[2],11 /MMP1/hr
same,kcat/MMP1/hr using 114.2 mg/ml concentration (+MMP1 for 9 hr),[2],10 /MMP1/hr
same,kcat/MMP1/hr using 114.2 mg/ml concentration (+MMP1 for 10 hr),[2],10 /MMP1/hr
B2,collagen degradation on SDS PAGE,[2],did not show degradation of type-1 collagen
